Source: the supplement of paper PMC9170038

Tested on: MS2 coat protein
Test: apparent KD of MS2 coat protein; designed switch direction (-1 OFF switch, 1 ON switch): 1; higher = weaker reporter binding
Method in brief: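 Designed RNA switches with common flanks were made on Illumina chips by stalled E. coli RNA polymerase. Titration with SNAP-549-labelled MS2 coat protein doubled from 0.7 or 1.5 nM up to 3 µM. Apparent KD is each design's median over clusters after curve-fitting normalised fluorescence.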

[1] = input ligand: microRNA oligo, concentration not stated
[2] = Eterna round: R95, input ligand: FMN 200 uM
[3] = Eterna round: R95, input ligand: microRNA oligo, concentration not stated
[4] = Eterna round: R95, input ligand: none

Sequence: GGAGGAUUCGCAGGAUAUUCCUGAACACUGUAGGAAGAAGGGUGACGUAUCAGCACCAAGUGACAUGAGGAUCACCCAUGUUAA [Eternabot solution 24] (Eterna round: R96, puzzle: Same State NG 1)
- apparent KD of MS2 coat protein (input ligand: FMN 200 uM): 137 nM
- apparent KD of MS2 coat protein [1]: 93.7 nM
- apparent KD of MS2 coat protein (input ligand: none): 114 nM

Sequence: GCUCGAUGAGCUGUCUACAUGAGGAUCACCCAUGUAGAUGGGCAGGAUAUUUACGUGCUUUAUGUAGAGAAGGGCCCAUCGAGC [SameState NG3 #78] (Eterna round: R96, puzzle: Same State NG 3)
- apparent KD of MS2 coat protein (input ligand: FMN 200 uM): 15.5 nM
- apparent KD of MS2 coat protein [1]: 123 nM
- apparent KD of MS2 coat protein (input ligand: none): 169 nM

Sequence: GAGCCAGUCCGAGGAUAUUCAUAUUAACAUGAGGAUCACCCAUGUAGGCUCAGAAAGGAGCCUUGGGAGAAGGCGGACUGGCUC [Xeonanisa<<2] (Eterna round: R96, puzzle: Same State NG 2)
- apparent KD of MS2 coat protein (input ligand: FMN 200 uM): 14.9 nM
- apparent KD of MS2 coat protein [1]: 114 nM
- apparent KD of MS2 coat protein (input ligand: none): 251 nM

Sequence: AAAAUACAUGAGGAUCACCCAUGUCUAAAGAACGGAGGAUAUAGGCGUGCAAAACACGCACUAGAAGGCUGGGUGC [Eserus] (puzzle: Same State 1)
- apparent KD of MS2 coat protein [2]: 144 nM
- apparent KD of MS2 coat protein [3]: 92.3 nM
- apparent KD of MS2 coat protein [4]: 220 nM

Sequence: GCCGGCUGGUGAGGAUAUGGCACCUUAUUGGUGCCAGAAGGCAUGUCAAUUGACAUGAGGAUCACCCAUGUGUUGUCGUUGGCG [salish99_SSNG1_r04_609] (Eterna round: R96, puzzle: Same State NG 1)
- apparent KD of MS2 coat protein (input ligand: FMN 200 uM): 698 nM
- apparent KD of MS2 coat protein [1]: 72.4 nM
- apparent KD of MS2 coat protein (input ligand: none): 742 nM

Sequence: AAACACAUGAGGAUCACCCAUGUAGCGCCAUUAAAGCGCACAUAGGAUAUCCGGUCCUAAAGACCGGAGAAGGGUGAAAGAAAA [Zara] (Eterna round: R96, puzzle: Same State NG 3)
- apparent KD of MS2 coat protein (input ligand: FMN 200 uM): 54.8 nM
- apparent KD of MS2 coat protein [1]: 76.2 nM
- apparent KD of MS2 coat protein (input ligand: none): 121 nM

Sequence: AAUCGUUUGAUAGGAUAUCGUUAUACAUGAGGAUCACCCAUGUUUACCACGCUGGUUUUUCGUACCGAGAAGGAUUCUGAUGAU [JL JR sub007 mod 6] (Eterna round: R96, puzzle: Same State NG 2)
- apparent KD of MS2 coat protein (input ligand: FMN 200 uM): 30.5 nM
- apparent KD of MS2 coat protein [1]: 20.2 nM
- apparent KD of MS2 coat protein (input ligand: none): 27.5 nM

Sequence: GCUAGAAUUAACGCCUACAUGAGGAUCACCCAUGUAUGUAGGCAGGAUAUCGUUUGCUUUGCAAACGAGAAGGGCCUUACUAGC [JL SSNG3 1.11] (Eterna round: R96, puzzle: Same State NG 3)
- apparent KD of MS2 coat protein (input ligand: FMN 200 uM): 22.3 nM
- apparent KD of MS2 coat protein [1]: 53.3 nM
- apparent KD of MS2 coat protein (input ligand: none): 42 nM

Sequence: CCGAUAAUUGGAGGAUAUGGAGCCUUAUUGGCUCCAGAAGGCUAUAAACAUGAGGAUCACCCAUGUCGGCGGUCUAAUGACCGA [Eli NG1ss - 50] (Eterna round: R96, puzzle: Same State NG 1)
- apparent KD of MS2 coat protein (input ligand: FMN 200 uM): 28 nM
- apparent KD of MS2 coat protein [1]: 36.6 nM
- apparent KD of MS2 coat protein (input ligand: none): 60.4 nM

Sequence: CCCGUCUACAGAAAGGUAGAUGGGAAUGUACAUGAGGAUCACCCAUGUUAAUAUGAGUUUGUUGAUAAUUAUGAAUU [Modxample 50 - Jieux - Sensor for bsa-mir-208a] (Eterna round: R96, puzzle: Sensor for hsa-mir-208a)
- apparent KD of MS2 coat protein (input ligand: FMN 200 uM): 19.7 nM
- apparent KD of MS2 coat protein [1]: 18.9 nM
- apparent KD of MS2 coat protein (input ligand: none): 24.4 nM

Sequence: CGUCCGGCCUGUGCUGGCCGGAUGCAUGUACAUGAGGAUCACCCAUGUUCAUGUGCAGGCUUUUUGCUCGUCUUGUG [salish99_mir208a_r3_008] (puzzle: Sensor for hsa-mir-208a)
- apparent KD of MS2 coat protein [2]: 19.2 nM
- apparent KD of MS2 coat protein [3]: 11.9 nM
- apparent KD of MS2 coat protein [4]: 23.1 nM

Sequence: AGAGUGUAUCCACAGGAUAUGCGAGCUGACACAUGAGGAUCACCCAUGUAGUCCUAAAGGGCCAAGCAGAAGGGUGGUAAAGCUC [Oneson] (puzzle: Same State 2)
- apparent KD of MS2 coat protein [2]: 17.5 nM
- apparent KD of MS2 coat protein [3]: 28.9 nM
- apparent KD of MS2 coat protein [4]: 33.9 nM

Sequence: GCGGCGGCACGGCAGGAUAUGAUAUAACCUACAUGAGGAUCACCCAUGUCGGCGGGUUGCAAAAUUCAGAAGGGCCCUGUAGGCC [Inberere] (puzzle: Same State 2)
- apparent KD of MS2 coat protein [2]: 21.8 nM
- apparent KD of MS2 coat protein [3]: 34.4 nM
- apparent KD of MS2 coat protein [4]: 37.2 nM

Sequence: AGAUCUCCUCUAGGAUAUCCCUAACAUGAGGAUCACCCAUGUCCGAAUUGCAGACAUAGGCCGAGGGAGAAGGAGAAACCGUCG [Eternabot solution 41] (Eterna round: R96, puzzle: Same State NG 2)
- apparent KD of MS2 coat protein (input ligand: FMN 200 uM): 742 nM
- apparent KD of MS2 coat protein [1]: 576 nM
- apparent KD of MS2 coat protein (input ligand: none): 856 nM

Sequence: CCGAGUGGCGUACAGGAUAUGUUGCAUGGAACAUGAGGAUCACCCAUGUAUUUGCUCCCGCAUACGCAGAAGGGUGCGUCCUGGG [Arraquorso] (Eterna round: R96, puzzle: Same State 2)
- apparent KD of MS2 coat protein (input ligand: FMN 200 uM): 25 nM
- apparent KD of MS2 coat protein [1]: 31.4 nM
- apparent KD of MS2 coat protein (input ligand: none): 46.9 nM

Sequence: GUGGUCAGACAUGAGGAUCACCCAUGUGGAAUAAAUAAGGUCAAGGAUAUUCAAUAUAGGAUAUAGAAGAAGGUGAGGUUGGUG (Eterna round: R96, puzzle: Same State NG 3)
- apparent KD of MS2 coat protein [1]: 108 nM

Sequence: AAACAUGAGCGAGGAUAUACGGAGGAUCACCCUGUAGAAGGCGCAUGUAAAACAACAUGAGGAUCACCCAUGUCAUGUACAUGA (Eterna round: R96, puzzle: Same State NG 1)
- apparent KD of MS2 coat protein (input ligand: FMN 200 uM): 24.8 nM
- apparent KD of MS2 coat protein [1]: 23.4 nM
- apparent KD of MS2 coat protein (input ligand: none): 33.6 nM

Sequence: ACAUGAGAGCUAGGAUAUUUUGUACCUACAUGUGACAUGAGGAUCACCCAUGUGGUAAGUAUGAGAAAGAAGGAGCAGAUAUGU [Equivalance 53 - Jieux - Same State NG 2] (Eterna round: R96, puzzle: Same State NG 2)
- apparent KD of MS2 coat protein (input ligand: FMN 200 uM): 14.9 nM
- apparent KD of MS2 coat protein [1]: 30.7 nM
- apparent KD of MS2 coat protein (input ligand: none): 38 nM

Sequence: GAUUAACAUGAGGAUCACCCAUGUGUGAAUAUGGGAGGAUAUACGUGGACCGUAGUCCGCGUAGAAGGCCUAAUUG [JL-ss1-3.20 janelle mod] (puzzle: Same State 1)
- apparent KD of MS2 coat protein [3]: 223 nM

Sequence: GUCAGGCAAGCUUUUUUCUCGUAGUGUAAACAUGAGGAUCACCCAUGUGCUCGCCCUGGAUCUUUGGAUCCCAGAAA [Anedraus] (puzzle: Sensor for hsa-mir-208a)
- apparent KD of MS2 coat protein [2]: 40.2 nM
- apparent KD of MS2 coat protein [3]: 21 nM
- apparent KD of MS2 coat protein [4]: 41.9 nM

Sequence: AUUACUAACAUAGGAUAUCAUGCGAAAAUUGCGUGAGAAGGGUGGACACUGUCAUUCUCGGAGCACAUGAGGAUCACCCAUGUG [SameState NG1 #70] (Eterna round: R96, puzzle: Same State NG 1)
- apparent KD of MS2 coat protein (input ligand: FMN 200 uM): 80.6 nM
- apparent KD of MS2 coat protein [1]: 42.4 nM
- apparent KD of MS2 coat protein (input ligand: none): 59 nM

Sequence: CUGAGCGAUCUAGGAUAUCACGUCGAUUAGACGUGAGAAGGAGAUCAUAACAUGAGGAUCACCCAUGUAUUACAUGAAGCUCAG [SSNG1/6-A2] (Eterna round: R96, puzzle: Same State NG 1)
- apparent KD of MS2 coat protein (input ligand: FMN 200 uM): 17.6 nM
- apparent KD of MS2 coat protein [1]: 9.15 nM
- apparent KD of MS2 coat protein (input ligand: none): 19.6 nM

Sequence: CGUAGGUGGCUGGAGGAUAUUCGAGUGGUAACAUGAGGAUCACCCAUGUGUCGCGCGGUACAUGAGGAGAAGGCUAGCGGCCUGC (puzzle: Same State 2)
- apparent KD of MS2 coat protein [2]: 20.8 nM
- apparent KD of MS2 coat protein [3]: 118 nM
- apparent KD of MS2 coat protein [4]: 250 nM
